Assay [1] addresses human amyloidomas (all implanted human amyloid extracts). As to the kind of experiment: in vivo microPET.
Assay [2] concerns the target human amyloidomas of kappa subtypes. As to the kind of experiment: in vivo microPET of mice implanted with kappa subtype amyloid.
Assay [3] has as its target human amyloidomas of lambda subtypes. Put plainly: in vivo microPET of mice implanted with lambda subtype amyloid.
In assay [4] the target is human amyloidomas (all implanted human amyloid extracts). As to the kind of experiment: in vivo microPET, 4 days after tracer injection.

Bounds are passed on as bounds.

B1: [124I]CAEL-101 (antibody, human IgG1, V domains shown)
VH: QVQLKESGPGLVAPSQSLSITCTVSGFSLSSYGVSWVRQPPGKGLEWLGVIWGDGSTNYHPNLMSRLSISKDISKSQVLFKLNSLQTDDTATYYCVTLDYWGQGTSVTVSS
VL: DVVMTQTPLSLPVSLGDQASISCRSSQSLVHRNGNTYLHWYLQKPGQSPKLLIYKVSNRFSGVPRDFSGSGSGTDFTLKISRVEAEDLGLYFCFQTTYVPNTFGGGTKLEIK
modifications: 124I radiolabel by the standard iodogen reaction (residues and chain not stated)
In assay [1], B1 yielded a T:B uptake (amyloid deposit-to-background) of more than 2.1. The results for the T:B ratio (amyloid deposit-to-background, SUVmax) in assay [2], in assay [3] and in assay [4] were 4.1, 2.8 and 2.1 to 4.2, respectively.

These data come from patent EP3873932A1.
